{"source": "the supplement of paper PMC10567573", "parents": {"B1": {"name": "OAS1 (parent)", "chain": "YIGTHEYPHFSHRPSTLQAASTPQ"}, "B2": {"name": "KRT33B (parent)", "chain": "YQSYFKTIEELQQKILCSKSENAR"}}, "data": [{"variants_of": "B1", "experiment": "protein stability index of a GFP-peptide fusion (GPS, HEK-293T) (PSI 1-6); higher = more stable", "conditions": "c terminus: a fixed tail appended", "values": [{"variant": "Y1P", "protein stability index": 4.32}, {"variant": "Y1Q", "protein stability index": 4.21}, {"variant": "Y1R", "protein stability index": 3.84}, {"variant": "Y1C", "protein stability index": 3.33}, {"variant": "Y1T", "protein stability index": 4.07}, {"variant": "Y1W", "protein stability index": 2.73}, {"variant": "Y1I", "protein stability index": 3.58}, {"variant": "Y1K", "protein stability index": 3.52}, {"variant": "Y1F", "protein stability index": 1.49}, {"variant": "Y1N", "protein stability index": 4.04}, {"variant": "Y1D", "protein stability index": 4.09}, {"variant": "Y1M", "protein stability index": 3.66}, {"variant": "Y1S", "protein stability index": 4}, {"variant": "Y1L", "protein stability index": 3.54}, {"variant": "Y1H", "protein stability index": 3.64}, {"variant": "Y1A", "protein stability index": 4.01}, {"variant": "Y1V", "protein stability index": 3.64}, {"variant": "Y1E", "protein stability index": 4.08}, {"variant": "Y1G", "protein stability index": 4.34}, {"variant": "G3M", "protein stability index": 1.86}, {"variant": "G3N", "protein stability index": 2.3}, {"variant": "G3L", "protein stability index": 2.19}, {"variant": "G3H", "protein stability index": 1.89}, {"variant": "G3E", "protein stability index": 1.8}, {"variant": "G3Q", "protein stability index": 2.32}, {"variant": "G3V", "protein stability index": 1.95}, {"variant": "G3Y", "protein stability index": 1.6}, {"variant": "G3A", "protein stability index": 2.11}, {"variant": "G3K", "protein stability index": 2.48}, {"variant": "G3I", "protein stability index": 2.6}, {"variant": "G3R", "protein stability index": 2.07}, {"variant": "G3C", "protein stability index": 1.97}, {"variant": "G3T", "protein stability index": 2.29}, {"variant": "G3S", "protein stability index": 2.03}, {"variant": "G3D", "protein stability index": 1.75}, {"variant": "G3F", "protein stability index": 2.35}, {"variant": "G3P", "protein stability index": 2.28}, {"variant": "G3W", "protein stability index": 1.83}, {"variant": "I2G", "protein stability index": 3.15}, {"variant": "I2P", "protein stability index": 2.47}, {"variant": "I2W", "protein stability index": 2.66}, {"variant": "I2T", "protein stability index": 2.17}, {"variant": "I2M", "protein stability index": 2.92}, {"variant": "I2R", "protein stability index": 3.68}, {"variant": "I2N", "protein stability index": 3.29}, {"variant": "I2E", "protein stability index": 4.18}, {"variant": "I2H", "protein stability index": 1.44}, {"variant": "I2Q", "protein stability index": 2.59}, {"variant": "I2K", "protein stability index": 3.47}, {"variant": "I2C", "protein stability index": 1.87}, {"variant": "I2F", "protein stability index": 2.67}, {"variant": "I2L", "protein stability index": 2.73}, {"variant": "I2S", "protein stability index": 2.49}, {"variant": "I2D", "protein stability index": 3.48}, {"variant": "I2Y", "protein stability index": 3.27}, {"variant": "I2A", "protein stability index": 2.29}, {"variant": "I2V", "protein stability index": 2.61}, {"variant": "H5S", "protein stability index": 1.94}, {"variant": "H5V", "protein stability index": 2.23}, {"variant": "H5R", "protein stability index": 2.35}, {"variant": "H5Q", "protein stability index": 2.38}, {"variant": "H5W", "protein stability index": 2.29}, {"variant": "H5E", "protein stability index": 2.53}, {"variant": "H5G", "protein stability index": 2.09}, {"variant": "H5A", "protein stability index": 1.72}, {"variant": "H5K", "protein stability index": 2.47}, {"variant": "H5F", "protein stability index": 2.28}, {"variant": "H5C", "protein stability index": 1.75}, {"variant": "H5D", "protein stability index": 2.52}, {"variant": "H5I", "protein stability index": 1.93}, {"variant": "H5N", "protein stability index": 2.03}, {"variant": "H5M", "protein stability index": 2.14}, {"variant": "H5P", "protein stability index": 2.45}, {"variant": "H5L", "protein stability index": 2.12}, {"variant": "H5T", "protein stability index": 2.3}, {"variant": "T4G", "protein stability index": 2.27}, {"variant": "T4P", "protein stability index": 2.34}, {"variant": "T4Q", "protein stability index": 1.89}, {"variant": "T4S", "protein stability index": 1.89}, {"variant": "T4E", "protein stability index": 2.55}, {"variant": "T4A", "protein stability index": 1.86}, {"variant": "T4Y", "protein stability index": 1.84}, {"variant": "T4F", "protein stability index": 2.11}, {"variant": "T4W", "protein stability index": 2.89}, {"variant": "T4H", "protein stability index": 1.95}, {"variant": "T4L", "protein stability index": 1.81}, {"variant": "T4D", "protein stability index": 2.56}, {"variant": "T4C", "protein stability index": 2.12}, {"variant": "T4N", "protein stability index": 2.2}, {"variant": "T4I", "protein stability index": 1.84}, {"variant": "T4K", "protein stability index": 2.15}, {"variant": "T4V", "protein stability index": 1.76}, {"variant": "T4M", "protein stability index": 2.15}, {"variant": "T4R", "protein stability index": 1.7}]}, {"variants_of": "B2", "experiment": "protein stability index of a GFP-peptide fusion (GPS, HEK-293T) (PSI 1-6); higher = more stable", "conditions": "c terminus: a fixed tail appended", "values": [{"variant": "A23H", "protein stability index": 1.68}, {"variant": "A23T", "protein stability index": 2.27}, {"variant": "A23V", "protein stability index": 2.35}, {"variant": "A23I", "protein stability index": 1.9}, {"variant": "A23K", "protein stability index": 1.76}, {"variant": "A23P", "protein stability index": 1.68}, {"variant": "E9K", "protein stability index": 2.9}, {"variant": "E9M", "protein stability index": 1.78}, {"variant": "E9Y", "protein stability index": 2.33}, {"variant": "N22Y", "protein stability index": 1.86}, {"variant": "N22G", "protein stability index": 1.99}, {"variant": "N22Q", "protein stability index": 2.19}, {"variant": "N22R", "protein stability index": 1.49}, {"variant": "N22M", "protein stability index": 1.93}, {"variant": "N22E", "protein stability index": 1.89}, {"variant": "E21V", "protein stability index": 1.65}, {"variant": "I8V", "protein stability index": 2.19}, {"variant": "I8C", "protein stability index": 1.84}, {"variant": "I8R", "protein stability index": 1.9}, {"variant": "I8G", "protein stability index": 1.78}, {"variant": "L16D", "protein stability index": 1.87}, {"variant": "L16T", "protein stability index": 1.55}, {"variant": "S3T", "protein stability index": 1.9}, {"variant": "S3A", "protein stability index": 2.87}, {"variant": "T7H", "protein stability index": 2.31}, {"variant": "T7G", "protein stability index": 1.8}, {"variant": "T7Q", "protein stability index": 1.84}, {"variant": "T7K", "protein stability index": 1.88}, {"variant": "Q2I", "protein stability index": 2.63}, {"variant": "I15A", "protein stability index": 2.14}, {"variant": "I15Y", "protein stability index": 1.73}, {"variant": "I15T", "protein stability index": 1.81}, {"variant": "L11T", "protein stability index": 1.85}, {"variant": "L11N", "protein stability index": 2.09}, {"variant": "L11I", "protein stability index": 1.81}, {"variant": "L11D", "protein stability index": 1.79}, {"variant": "K14C", "protein stability index": 2.14}, {"variant": "K14V", "protein stability index": 1.65}, {"variant": "K14S", "protein stability index": 1.97}, {"variant": "K19G", "protein stability index": 2.08}, {"variant": "K19E", "protein stability index": 2.56}, {"variant": "K19Y", "protein stability index": 1.84}, {"variant": "R24L", "protein stability index": 2.15}, {"variant": "R24D", "protein stability index": 1.78}, {"variant": "R24M", "protein stability index": 1.92}, {"variant": "R24E", "protein stability index": 1.88}, {"variant": "S20P", "protein stability index": 1.99}, {"variant": "S20F", "protein stability index": 1.97}, {"variant": "S20Y", "protein stability index": 1.95}, {"variant": "S20H", "protein stability index": 1.82}, {"variant": "Y4L", "protein stability index": 1.92}, {"variant": "Y4Q", "protein stability index": 1.58}, {"variant": "Y4W", "protein stability index": 2.97}, {"variant": "F5Q", "protein stability index": 2.78}, {"variant": "E10D", "protein stability index": 2.36}, {"variant": "E10F", "protein stability index": 2.13}, {"variant": "E10Q", "protein stability index": 2.69}, {"variant": "K6D", "protein stability index": 2.08}, {"variant": "K6H", "protein stability index": 1.62}, {"variant": "K6C", "protein stability index": 3.34}, {"variant": "K6W", "protein stability index": 2.07}, {"variant": "Q13N", "protein stability index": 2.19}, {"variant": "Q13K", "protein stability index": 1.85}, {"variant": "C17E", "protein stability index": 2.49}, {"variant": "C17I", "protein stability index": 2.07}, {"variant": "C17G", "protein stability index": 1.87}, {"variant": "C17A", "protein stability index": 2.16}, {"variant": "S18D", "protein stability index": 1.9}, {"variant": "S18N", "protein stability index": 1.92}, {"variant": "S18C", "protein stability index": 2.65}, {"variant": "Q12F", "protein stability index": 2.98}, {"variant": "Q12G", "protein stability index": 1.73}, {"variant": "Y1W", "protein stability index": 2.98}]}]}
